Laboratory results from patent US20130005646A1 (Novo Nordisk, published 2013).
Starred links: 1 amine or outer side, 2 acyl side, 3 side chain; linkers in the order of their positions; H or OH if unused. Positions of bridges follow the written chain, without caps; N, C: chain ends. *: point of attachment. C20 diacid = O=C(O)CCCCCCCCCCCCCCCCCCC(=O)*; C18 diacid = O=C(O)CCCCCCCCCCCCCCCCC(=O)*; γGlu = O=C(O)[C@H](CCC(=O)[*:2])N[*:1]

T1: human amylin 3(a) receptor (human calcitonin receptor + RAMP-3) (human, UniProt P30988 25-474; O60896 24-148)
T1 sequence (looked up) 1: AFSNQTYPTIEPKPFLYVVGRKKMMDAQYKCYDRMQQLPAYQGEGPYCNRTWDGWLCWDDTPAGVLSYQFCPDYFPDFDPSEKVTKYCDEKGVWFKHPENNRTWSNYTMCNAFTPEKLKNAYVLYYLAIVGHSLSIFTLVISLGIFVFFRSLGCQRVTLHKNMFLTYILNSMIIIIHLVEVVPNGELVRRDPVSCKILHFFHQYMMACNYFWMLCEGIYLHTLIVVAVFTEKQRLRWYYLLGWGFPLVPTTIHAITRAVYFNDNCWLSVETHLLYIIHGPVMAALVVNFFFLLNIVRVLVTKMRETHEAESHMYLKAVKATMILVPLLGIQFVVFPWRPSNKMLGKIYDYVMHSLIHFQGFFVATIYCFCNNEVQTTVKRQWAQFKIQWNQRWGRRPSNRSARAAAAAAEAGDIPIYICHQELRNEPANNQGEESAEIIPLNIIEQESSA
T1 sequence (looked up) 2: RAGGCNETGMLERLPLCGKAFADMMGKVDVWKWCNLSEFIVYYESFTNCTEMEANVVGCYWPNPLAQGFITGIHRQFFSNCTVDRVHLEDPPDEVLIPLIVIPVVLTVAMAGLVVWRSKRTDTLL

T2: human calcitonin (a) receptor (human, UniProt P30988 25-474)
T2 sequence (looked up): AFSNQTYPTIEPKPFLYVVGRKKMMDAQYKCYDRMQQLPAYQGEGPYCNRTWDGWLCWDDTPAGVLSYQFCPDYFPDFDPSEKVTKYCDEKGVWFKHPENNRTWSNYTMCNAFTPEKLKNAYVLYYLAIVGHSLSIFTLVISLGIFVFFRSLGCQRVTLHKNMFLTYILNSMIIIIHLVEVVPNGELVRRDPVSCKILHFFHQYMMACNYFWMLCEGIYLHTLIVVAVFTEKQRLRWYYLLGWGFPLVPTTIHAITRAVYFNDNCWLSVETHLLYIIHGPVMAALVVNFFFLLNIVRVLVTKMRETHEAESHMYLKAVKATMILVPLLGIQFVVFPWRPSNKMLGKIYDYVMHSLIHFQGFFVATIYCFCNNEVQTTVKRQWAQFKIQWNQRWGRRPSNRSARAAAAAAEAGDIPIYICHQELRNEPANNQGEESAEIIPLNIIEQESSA


What was measured:
[1] = biological target: T1, human amylin 3(a) receptor (human …); assay: cell-based or functional assay
[2] = biological target: T2, human calcitonin (a) receptor; assay: cell-based or functional assay

Row | Binder | Amylin receptor human EC50 [1] [nM] | CTa receptor human EC50 [2] [nM]
1 | {C18 diacid-γGlu}-EKCNTATCATQRLAEFLHHSSNNFGPILPPTNVGSHTY-NH2 (disulfide 3-8; SMILES CC[C@H](C)[C@H](NC(=O)[C@@H]1CCCN1C(=O)CNC(=O)[C@H](Cc1ccccc1)NC(=O)[C@H](CC(N)=O)NC(=O)[C@H](CC(N)=O)NC(=O)[C@H](CO)NC(=O)[C@H](CO)NC(=O)[C@H](Cc1c[nH]cn1)NC(=O)[C@H](Cc1c[nH]cn1)NC(=O)[C@H](CC(C)C)NC(=O)[C@H](Cc1ccccc1)NC(=O)[C@H](CCC(=O)O)NC(=O)[C@H](C)NC(=O)[C@H](CC(C)C)NC(=O)[C@H](CCCNC(=N)N)NC(=O)[C@H](CCC(N)=O)NC(=O)[C@@H](NC(=O)[C@H](C)NC(=O)[C@@H]1CSSC[C@H](NC(=O)[C@H](CCCCN)NC(=O)[C@H](CCC(=O)O)NC(=O)CC[C@H](NC(=O)CCCCCCCCCCCCCCCCC(=O)O)C(=O)O)C(=O)N[C@@H](CC(N)=O)C(=O)N[C@@H]([C@@H](C)O)C(=O)N[C@@H](C)C(=O)N[C@@H]([C@@H](C)O)C(=O)N1)[C@@H](C)O)C(=O)N[C@@H](CC(C)C)C(=O)N1CCC[C@H]1C(=O)N1CCC[C@H]1C(=O)N[C@H](C(=O)N[C@@H](CC(N)=O)C(=O)N[C@H](C(=O)NCC(=O)N[C@@H](CO)C(=O)N[C@@H](Cc1c[nH]cn1)C(=O)N[C@H](C(=O)N[C@@H](Cc1ccc(O)cc1)C(N)=O)[C@@H](C)O)C(C)C)[C@@H](C)O) [N-alpha-[(S)-4-Carboxy-4-(17-carboxyheptadecanoylamino)butyryl]-Glu-[Glu14,His17,His35]-pramlintide] | 0.102 | 0.169
2 | {C18 diacid-γGlu}-KCNTATCATQRLAEFLRHSSNNFGPILPPTNVGSNTY-NH2 (disulfide 2-7; SMILES CC[C@H](C)[C@H](NC(=O)[C@@H]1CCCN1C(=O)CNC(=O)[C@H](Cc1ccccc1)NC(=O)[C@H](CC(N)=O)NC(=O)[C@H](CC(N)=O)NC(=O)[C@H](CO)NC(=O)[C@H](CO)NC(=O)[C@H](Cc1c[nH]cn1)NC(=O)[C@H](CCCNC(=N)N)NC(=O)[C@H](CC(C)C)NC(=O)[C@H](Cc1ccccc1)NC(=O)[C@H](CCC(=O)O)NC(=O)[C@H](C)NC(=O)[C@H](CC(C)C)NC(=O)[C@H](CCCNC(=N)N)NC(=O)[C@H](CCC(N)=O)NC(=O)[C@@H](NC(=O)[C@H](C)NC(=O)[C@@H]1CSSC[C@H](NC(=O)[C@H](CCCCN)NC(=O)CC[C@H](NC(=O)CCCCCCCCCCCCCCCCC(=O)O)C(=O)O)C(=O)N[C@@H](CC(N)=O)C(=O)N[C@@H]([C@@H](C)O)C(=O)N[C@@H](C)C(=O)N[C@@H]([C@@H](C)O)C(=O)N1)[C@@H](C)O)C(=O)N[C@@H](CC(C)C)C(=O)N1CCC[C@H]1C(=O)N1CCC[C@H]1C(=O)N[C@H](C(=O)N[C@@H](CC(N)=O)C(=O)N[C@H](C(=O)NCC(=O)N[C@@H](CO)C(=O)N[C@@H](CC(N)=O)C(=O)N[C@H](C(=O)N[C@@H](Cc1ccc(O)cc1)C(N)=O)[C@@H](C)O)C(C)C)[C@@H](C)O) [N-alpha-[(S)-4-Carboxy-4-(17-carboxyheptadecanoylamino)butyryl]-[Glu14,Arg17]-pramlintide] | 0.061 | 0.6
3 | {C20 diacid-γGlu}-HHHCNTATCATQRLAEFLHHSSSNFGPILPPTNVGSETY-NH2 (disulfide 4-9; SMILES CC[C@H](C)[C@H](NC(=O)[C@@H]1CCCN1C(=O)CNC(=O)[C@H](Cc1ccccc1)NC(=O)[C@H](CC(N)=O)NC(=O)[C@H](CO)NC(=O)[C@H](CO)NC(=O)[C@H](CO)NC(=O)[C@H](Cc1c[nH]cn1)NC(=O)[C@H](Cc1c[nH]cn1)NC(=O)[C@H](CC(C)C)NC(=O)[C@H](Cc1ccccc1)NC(=O)[C@H](CCC(=O)O)NC(=O)[C@H](C)NC(=O)[C@H](CC(C)C)NC(=O)[C@H](CCCNC(=N)N)NC(=O)[C@H](CCC(N)=O)NC(=O)[C@@H](NC(=O)[C@H](C)NC(=O)[C@@H]1CSSC[C@H](NC(=O)[C@H](Cc2c[nH]cn2)NC(=O)[C@H](Cc2c[nH]cn2)NC(=O)[C@H](Cc2c[nH]cn2)NC(=O)CC[C@H](NC(=O)CCCCCCCCCCCCCCCCCCC(=O)O)C(=O)O)C(=O)N[C@@H](CC(N)=O)C(=O)N[C@@H]([C@@H](C)O)C(=O)N[C@@H](C)C(=O)N[C@@H]([C@@H](C)O)C(=O)N1)[C@@H](C)O)C(=O)N[C@@H](CC(C)C)C(=O)N1CCC[C@H]1C(=O)N1CCC[C@H]1C(=O)N[C@H](C(=O)N[C@@H](CC(N)=O)C(=O)N[C@H](C(=O)NCC(=O)N[C@@H](CO)C(=O)N[C@@H](CCC(=O)O)C(=O)N[C@H](C(=O)N[C@@H](Cc1ccc(O)cc1)C(N)=O)[C@@H](C)O)C(C)C)[C@@H](C)O) | 0.558 | 0.632

Second part, the binder after the results:

Row | Amylin receptor human EC50 [1] [nM] | CTa receptor human EC50 [2] [nM] | Binder
4 | 0.101 | 0.459 | {C20 diacid-γGlu}-KCNTATCATQRLAEFLRHSSNNFGPILPPTNVGSNTY-NH2 (disulfide 2-7; SMILES CC[C@H](C)[C@H](NC(=O)[C@@H]1CCCN1C(=O)CNC(=O)[C@H](Cc1ccccc1)NC(=O)[C@H](CC(N)=O)NC(=O)[C@H](CC(N)=O)NC(=O)[C@H](CO)NC(=O)[C@H](CO)NC(=O)[C@H](Cc1c[nH]cn1)NC(=O)[C@H](CCCNC(=N)N)NC(=O)[C@H](CC(C)C)NC(=O)[C@H](Cc1ccccc1)NC(=O)[C@H](CCC(=O)O)NC(=O)[C@H](C)NC(=O)[C@H](CC(C)C)NC(=O)[C@H](CCCNC(=N)N)NC(=O)[C@H](CCC(N)=O)NC(=O)[C@@H](NC(=O)[C@H](C)NC(=O)[C@@H]1CSSC[C@H](NC(=O)[C@H](CCCCN)NC(=O)CC[C@H](NC(=O)CCCCCCCCCCCCCCCCCCC(=O)O)C(=O)O)C(=O)N[C@@H](CC(N)=O)C(=O)N[C@@H]([C@@H](C)O)C(=O)N[C@@H](C)C(=O)N[C@@H]([C@@H](C)O)C(=O)N1)[C@@H](C)O)C(=O)N[C@@H](CC(C)C)C(=O)N1CCC[C@H]1C(=O)N1CCC[C@H]1C(=O)N[C@H](C(=O)N[C@@H](CC(N)=O)C(=O)N[C@H](C(=O)NCC(=O)N[C@@H](CO)C(=O)N[C@@H](CC(N)=O)C(=O)N[C@H](C(=O)N[C@@H](Cc1ccc(O)cc1)C(N)=O)[C@@H](C)O)C(C)C)[C@@H](C)O) [N-alpha-[(S)-4-Carboxy-4-(19-carboxynonadecanoylamino)butyryl]-[Glu14,Arg17]-pramlintide]
5 | 0.13 | 0.2 | {C20 diacid-γGlu}-KCNTATCATERLAEFLHHSSNNFGPILPPTNVGSNTY-NH2 (disulfide 2-7; SMILES CC[C@H](C)[C@H](NC(=O)[C@@H]1CCCN1C(=O)CNC(=O)[C@H](Cc1ccccc1)NC(=O)[C@H](CC(N)=O)NC(=O)[C@H](CC(N)=O)NC(=O)[C@H](CO)NC(=O)[C@H](CO)NC(=O)[C@H](Cc1c[nH]cn1)NC(=O)[C@H](Cc1c[nH]cn1)NC(=O)[C@H](CC(C)C)NC(=O)[C@H](Cc1ccccc1)NC(=O)[C@H](CCC(=O)O)NC(=O)[C@H](C)NC(=O)[C@H](CC(C)C)NC(=O)[C@H](CCCNC(=N)N)NC(=O)[C@H](CCC(=O)O)NC(=O)[C@@H](NC(=O)[C@H](C)NC(=O)[C@@H]1CSSC[C@H](NC(=O)[C@H](CCCCN)NC(=O)CC[C@H](NC(=O)CCCCCCCCCCCCCCCCCCC(=O)O)C(=O)O)C(=O)N[C@@H](CC(N)=O)C(=O)N[C@@H]([C@@H](C)O)C(=O)N[C@@H](C)C(=O)N[C@@H]([C@@H](C)O)C(=O)N1)[C@@H](C)O)C(=O)N[C@@H](CC(C)C)C(=O)N1CCC[C@H]1C(=O)N1CCC[C@H]1C(=O)N[C@H](C(=O)N[C@@H](CC(N)=O)C(=O)N[C@H](C(=O)NCC(=O)N[C@@H](CO)C(=O)N[C@@H](CC(N)=O)C(=O)N[C@H](C(=O)N[C@@H](Cc1ccc(O)cc1)C(N)=O)[C@@H](C)O)C(C)C)[C@@H](C)O) [N-alpha-[(S)-4-Carboxy-4-(19-carboxynonadecanoylamino)butyryl]-[Glu10,Glu14,His17]-pramlintide]
6 | 0.153 | 0.0945 | {C20 diacid-γGlu}-KCNTATCATQRLAEFLHHSSNNFGAPLSSTNVGSHTY-NH2 (disulfide 2-7; SMILES CC(C)C[C@H](NC(=O)[C@H](CCCNC(=N)N)NC(=O)[C@H](CCC(N)=O)NC(=O)[C@@H](NC(=O)[C@H](C)NC(=O)[C@@H]1CSSC[C@H](NC(=O)[C@H](CCCCN)NC(=O)CC[C@H](NC(=O)CCCCCCCCCCCCCCCCCCC(=O)O)C(=O)O)C(=O)N[C@@H](CC(N)=O)C(=O)N[C@@H]([C@@H](C)O)C(=O)N[C@@H](C)C(=O)N[C@@H]([C@@H](C)O)C(=O)N1)[C@@H](C)O)C(=O)N[C@@H](C)C(=O)N[C@@H](CCC(=O)O)C(=O)N[C@@H](Cc1ccccc1)C(=O)N[C@@H](CC(C)C)C(=O)N[C@@H](Cc1c[nH]cn1)C(=O)N[C@@H](Cc1c[nH]cn1)C(=O)N[C@@H](CO)C(=O)N[C@@H](CO)C(=O)N[C@@H](CC(N)=O)C(=O)N[C@@H](CC(N)=O)C(=O)N[C@@H](Cc1ccccc1)C(=O)NCC(=O)N[C@@H](C)C(=O)N1CCC[C@H]1C(=O)N[C@@H](CC(C)C)C(=O)N[C@@H](CO)C(=O)N[C@@H](CO)C(=O)N[C@H](C(=O)N[C@@H](CC(N)=O)C(=O)N[C@H](C(=O)NCC(=O)N[C@@H](CO)C(=O)N[C@@H](Cc1c[nH]cn1)C(=O)N[C@H](C(=O)N[C@@H](Cc1ccc(O)cc1)C(N)=O)[C@@H](C)O)C(C)C)[C@@H](C)O)
